{"source": "the DeepSol protein solubility set", "data": [{"test": "soluble on expression in E. coli; label from the status in PepcDB or PDB records", "values": [{"sequence": "MTQRLQLTWYNKDKALIPTETGKYGYTWVDPSDPRYCETHTLIFDDYVQGAQTPKSDEFECSERADLQPQDDNLLILGESGDVLEALTRVPELAEKYVGKVKLVYIDPPFNTAQTFASYEDNLEHSIWLTMMRDRLIHMKKLLTNDGSIWVHLDDVEVHRMRVLMDEVFGADRFIATVAWEKDKGRRNDTDISGAHDLILIYAPSGRQWKNVRNLLPRLASQDARYQNPDNDPRGPWLQGDNGTAKSGTEKNRFPVTLPSGRVVTPKGRYWRFSPEGLAEARADGRVWFGKDGDSLPVIKRYLTDVQTGLVPRTWWNADEAGHNQEAKRDHLNKMFPEVENP", "soluble on expression in E. coli": "not soluble"}, {"sequence": "MTRFAEKVAIITGSSNGIGRATAVLFAREGAKVTITGRHAERLEETRQQILAAGVSEQNVNSVVADVTTDAGQDEILSTTLGKFGKLDILVNNAGAAIPDSQSKTGTAQSIESYDATLNLNLRSVIALTKKAVPHLSSTKGEIVNISSIASGLHATPDFPYYSIAKAAIDQYTRNTAIDLIQHGIRVNSISPGLVATGFGSAMGMPEETSKKFYSTMATMKECVPAGVMGQPQDIAEVIAFLADRKTSSYIIGHQLVVDGGSSLIMGLHCQDFAKLLH", "soluble on expression in E. coli": "soluble"}, {"sequence": "MTRIAIALAQDFADWEPALLAAAARSYLGVEIVHATPDGMPVTSMGGLKVTPDTSYDALDPVDIDALVIPGGLSWEKGTAADLGGLVKRFRDRDRLVAGICAAASALGGTGVLNDVAHTGNALASHKAYPAYRGEAHYRDQPRAVSDGGVVTAAGSAPVSFAVEILKSLGLFGPEAEAELQIFAAEHR", "soluble on expression in E. coli": "soluble"}, {"sequence": "MTRIVVLGAGFAGLWAAIGAARKRDEIGAAGRDIEIRVVDRNPYHNIRVRNYEVDLSEVALPLGQLLDPIGVTHGLGEVEAIDPARREISLVTSDGEETLGYDRLVLAVGSEVTRPDIPGLADHAFDVDTYIAALRLEDHLVSLGRSVPSPGRSTVVVVGAGFTGIEVAAEMPDRLARAGITGSRCIILVDPNPTVGATIGAHARPVIETALSALDIETRLGARVASVEAAGVQLSSGEFIPAQTVIWCAGLRASRLAASLPGARDRLGRLLVDPFMRVADLPCVFAAGDVASSVVDGLHPTVMSCQFARPMGRFAGHNVVADLLGLPMLPLRIDWYVTVLDLGSWGALYTEGWDREVRTTGAAAKATKQTINRKRIYPPLNGSKDELFAAAAPTVQTPPPTYGARLEHHHHHH", "soluble on expression in E. coli": "soluble"}, {"sequence": "MTRPVTLSEPHFSQHTLNKYASLMAQGNGYLGLRASHEEDYTRQTRGMYLAGLYHRAGKGEINELVNLPDILGMEIAINGEVFSLSREAWQRELDFASGELRRSVVWRTSNGAGYTIASRRFVSADQLPLIALEITIMPLDADASVLISTGIDATQTNHGRQHLDETQVRVFGQHLMQGIYTTQDGRSDVAISCCCQVSGDVQQCYTAKERRLLQHTSTQLHAGETVTLQKLVWIDWRDDRQAALDEWGSVSLRQLEMCAQQSYDQHLAASTENWRQWWQKRRITVNGGDAHDQQALDYALYHLRIMTPAHGERSSIAAKGLTGEGYKGHVFWDTEVFLLPFHLFSDPTVARSLLRYRWHNLPGAQEKARRNGWQGALFPWESARSGEEETPEFAAINIRTGLRQKVASAQAEHHLVADIAWAVIQYWQTTGDESFIAHEGMALLLETAKFWISRAVRVNDRLEIHDVIGPDEYTEHVNNNAFTSYMVYYNVQQALSIARQFGCSDDAFIHRAEMFLKELRLPEIQPDGVLPQDDSFMTKPAINLAKYKAAAGKQTILLDYSRAEVNEMQILKQADVVMLNYMLPEQFSSASCLANLQFYEPRTIHDSSLSKAIHGIVAARCGLLTQSYQFWREGTEIDLGADPHSCDDGIHAAATGAIWLGAIQGFAGVSVRDGELHLNPALLEQWQQLSFPLFWQGCELQVTLDAQRIAIRTSAPVSLRLDGQLISVAEESVFCLGDFILPFNGTATTHQEDE", "soluble on expression in E. coli": "not soluble"}, {"sequence": "MTRQSLQQAAESRRSIYSLNKNLPVGKDEVVQIVEHAVLHTPSSFNSQSARVVVLFGEEHDKVWQFVEDALRAVVPADSFEPTAQKLNLFKAGAATILFYEDQNVVKGLQEQFPAYAANFPVWADQANAMVQYAVWTTLAAVGVGANLQHYNPLPDAAIAKAWNIPENWLLRAQMVIGGIEGAAGEKTFEPVAERLKVFGA", "soluble on expression in E. coli": "not soluble"}, {"sequence": "MTRTNKWTEREGKADPKYFSHTGNYGESPNHIKKQGSGKGNWGKPGDEIDDLIDNGEIPPVFKKDRRGSNLQSHEQKFENVQKE", "soluble on expression in E. coli": "not soluble"}, {"sequence": "MTRYLRLSGLEPFVLTPDIPFVNVGERTNVTGSARFRKLITNRDYAAALEVARDQVQNGAQILDVNMDEGLIDSKAAMVEFLNLIASEPDIARVPLMIDSSKWEVIEAGLKCVQGKPVVNSISLKEGEESFRRQAGLCLAYGAAVVVMAFDEEGQADSFARKTTICARAYRILVEEVGFPPEDIIFDPNVFAVATGIEEHDNYGVDFIEAARWIRANLPHAHVSGGVSNLSFSFRGNEPVREAMHAVFLYHAIRAGMDMGIVNAGQLAVYDQIDPDLREACEDVVLNRKPKQGGTATERLLALAER", "soluble on expression in E. coli": "not soluble"}, {"sequence": "MTSAYFGVAGGSNTGAQSAYFGVGGGPAGGGGGASKVGGGAAPPPGTSVYMGAGGGGGGGGAQSAYFAVGGAPVGGAPAAVSIGAPPPAGGGGASTMTALGGAPSGASTMTAVGGAPRGASTMTAVGGVPSGASTMTAVGGAPTGASTMTAVGGAPTGASPMTAFGGAPTGASTMTAVGGAPTGASTMTAVGGAPTGASTMTAVGGAPTGASTMTAVGGAPTGASTMTAVGGVPTGASTMTAIGGAPSGASTMTAVGGAPRGASTMTAVGGAPTGASTMTAVGAAPGGASTMTAVGGAPRGASTMTAVGAPGGGASALGAAPPAGSMSGGGGGATSGYFGVGQGVMGGGGAVGQSAYFGVGGGAAGGAKTGGGGGGGIPGQSMYMGAGGGGGAGGGATSAYFAPK", "soluble on expression in E. coli": "not soluble"}, {"sequence": "MTSESSGNTGGAMDEPTEKKPKEFSDLPDHVLQRIMEKVEPSDRLSVRKVNRNLRQLIDEMDPGFRSISVNISTRKGVLVSYDNGSFIHYQQVYDDCEMFGRKEKKRFFNENAVKMAINDVIRVMSHPMSNVKLFRTGIPTKPEMERSRSTGKQWKRAKILCANRGFMEVSMKHLCHFSRVVVNQARTSMQTAIEIRDILLKSTSIEYVDFCSRDGVTIDAVRVFIPETANVNQTTDYDNFTFSSSMCSLNFKKKR", "soluble on expression in E. coli": "not soluble"}, {"sequence": "MTSFTGITAVANATNEMAMFKQAMKEVAAHPEWMSSRQIERQRWNPYSMEGGSTCAISGENFAIVASDTRMTQNDINILTRDAEKIQILNDNIILTTSGFYGDVLQLKKVLQSRLHKYRFDYRSDMSVDLCAELLSRNLYYRRFFPYYTGAILAGIDEHGKGAVFSYDPIGCIERLGYSASGAAEPMIIPFLDCQIGHVTLSEGYERPELTLDRAISLMKDSFRGAAEREISTGDKIHLVIAEAGKPVVVKFLPLRED", "soluble on expression in E. coli": "not soluble"}, {"sequence": "MTSITPVTLANCEDEPIHVPGAIQPHGALVTLRADGMVLAASENIQALLGFVASPGSYLTQEQVGPEVLRMLEEGLTGNGPWSNSVETRIGEHLFDVIGHSYKEVFYLEFEIRTADTLSITSFTLNAQRIIAQVQLHNDTASLLSNVTDELRRMTGYDRVMAYRFRHDDSGEVVAESRREDLESYLGQRYPASDIPAQARRLYIQNPIRLIADVAYTPMRVFPALNPETNESFDLSYSVLRSVSPIHCEYLTNMGVRASMSISIVVGGKLWGLFSCHHMSPKLIPYPVRMSFQIFSQVCSAIVERLEQGRIAELLRVSTERRLALARRARDADDLFGALAHPDDGIAALIPCDGALVMLGGRTLSIRGDFERQAGNVLQRLQRDPERDIYHTDNWPQPSEDSPDGGDCCGVLAIRFHRQESGWIFWFRHEEVHRIRWGGKPEKLLTIGPSGPRLTPRGSFEAWEEVVRGHSTPWSETDLAIAEKLRLDLMELCLNHALEHHHHHH", "soluble on expression in E. coli": "soluble"}, {"sequence": "MTSKTSESGTGTQSTIVQLRNLPDLTEISHLEIDAPVVEILKKTVLFQLNSLNICISNFALDELVNLVTVQMDGMFRNLHNLTLLQRRSQASQADLKLLLREFNLDAPSLYQQFQASEFIKSKHSTEYEKLMSWSSLAALPHNEEDEEDELNNIEEQQNEINVLLPPSNPLEKQIPSWLPNFPPDHTYKFTPEFNHPITDLKTIKKEIVKESQESEKALLNLNKSLSHISSASNTPQPPGLDDEDAIEQQLEIWGNALEERKPTITEKSFNENNIEQYAKYRVELARERVTKFEVNQLKRTKNPFLKISETLYLPESPHQSHKTIQKTIELQFRKSMTLFMHNLPKVQKLKKEKIRMAKEERAKSLKRRQEELISQRTKREQDEGHDLELLLNNEHARDAADDTTTPNALNNSTIVINTNAEDEDDDINLFGILGSSEDENEMSSMPAENLVAESEPPTMTAQDTTNTTPVAHNTTNIDATTSHSPHSTPNENAPTSPPADIATDHDITM", "soluble on expression in E. coli": "soluble"}, {"sequence": "MTSNKNVKTLDEAIRELTRAKAILDSARPTAVNLVWATSRMLTLAKNAVENGNAKTINELIDLMKVEAKRIFDEEYDAEIQMGLYGLEKLNDSDT", "soluble on expression in E. coli": "not soluble"}, {"sequence": "MTSSIKSDAPQFLLDLDNCSSLPPTPPKTASPGNSKMKGFNISDLCLDLDSSTSSSCSVSPASSFHTRSESVGQQQSGRNSPVSSSTESPTKRPKYSYNALIAMAIQSSPFKSLRVSEIYKYISSNFSYYKNQKPLQWQNSVRHNLSLHKEFRKVRTLDGKGSYWAMTADLGTDVYISNNCGKLRRQKSKVAKFPPMQQHFPIPQLPTQNIHQLCMQNPQILATLLQNMYLQNMQNLQNIPMVPGFPIIPVPINPTSFHFPKSS", "soluble on expression in E. coli": "not soluble"}, {"sequence": "MTSSNKILLVFLLFFCIQDVASENGLDVSALSGKSKKFFFDMTKQVMGVPSLKPENLAAQAFFRSFLDKYTKLDDKVKNDMTQHVPKATKLFDAAAKKYNIDPSSAFKMLSTFFETFKKGASSEMASKGLQMAGKLLGGKGSGGGGGLLGFLGTRR", "soluble on expression in E. coli": "not soluble"}, {"sequence": "MTSSTETTSTTPQVAVNDIGNEEAFLAAIDETIKYFNDGDIVDGVIVKVDRDEVLLDIGYKTEGVIPSRELSIKHDVDPNEVVKVGDEIEALVLQKEDKEGRLILSKKRAQYERAWGTIEKIKEEDGIVTGTVIEVVKGGLILDIGLRGFLPASLVEMRRVRDLQPYVGKELEAKIIELDKNRNNVVLSRRAWLEQTQSEVRQTFLTTLQKGQVRSGVVSSIVNFGAFVDLGGVDGLVHVSELSWKHIDHPSEVVEVGQEVTVEVLDVDMDRERVSLSLKATQEDPWQQFARTHQIGQVVPGKVTKLVPFGAFVRVDEGIEGLVHISELAERHVEIPEQVVQVNDEIFVKVIDIDLERRRISLSLKQANEAFGGDPASVEFDPTLYGMAASYDDQGNYIYPEGFDPETNDWLEGFESQREVWETQYAEAQQRFEQHQAQVIKSREADAQAEAEGAAAPAAGGSGAGVSGGSYSSESDDNSGALASDEALAALREKLAGGQSLEHHHHHH", "soluble on expression in E. coli": "soluble"}, {"sequence": "MTSTSFATIELLHDPRGFATLWLNRADKNNAFNAQMIRELILALDQVQGNAGLRFLLIRGRGRHFSAGADLAWMQQAADLDYNTNLDDARELAELMYNLARLKIPTLAVVQGAAFGGALGLISCCDMAIAAEDAQFCLSEVRIGLAPAVISPFVVQAIGERATRRYALTAERFDGRQARHIGLIAECYPVADLEHQTLGWIDNLLLNSPQAMRISKELLREVGSGELTPALRRYCESAIARIRTSAEGQEGLRAFLQKRTPGWQQRDDEPAALEDRQKDSQR", "soluble on expression in E. coli": "not soluble"}, {"sequence": "MTSVLNSFWLGIKVPLRKAVYWLQYNLLKRKRNAFNILMAEETIDYIVKHECSVCRYGDGEIDMITCLKEGFDESRKSDFQTYDEKLAWRLKQILGNGSDEELNLIVCIPYVWKSHRSLSFTARRFIERSFVNNREMIFASIHPTRLYGDSYFTRFYIDARNKKKKGSYIQHCRQIWQGRDLCIIEGEQSRLGVGNDLFDNAQSIERILCPALDAFAKYDEIMKAACTVNKAKLVLIALGHTATVLAYDLAEVGYQAIDIGHIDIEYEWFLMRAPKKVPVPHKYVNEVPEGRQFSEERNKEYLSQIIYSVK", "soluble on expression in E. coli": "not soluble"}, {"sequence": "MTTAPAKISEYTVSTPDRTVASVRADGIVAATPLGSHGYAADAGGPHLAPGVSAAAVVPVSPFRVDRTNWVVCPPVSVTVARDETTVELHADGHAHGRVPVDSPVTLSWGTPLPIAVVSHAGTHGD", "soluble on expression in E. coli": "soluble"}]}]}
